Experimental data: doi:10.1101/2025.11.16.688685

Experiments:
hRNMT WT [1] = molecular target: T1, hRNMT WT (Homo sapiens, UniProt O43148 1-476); experiment: EMSA
hRNMT 120-476 [2] = molecular target: T2, hRNMT 120-476 (Homo sapiens, UniProt O43148 120-476); experiment: EMSA
hRNMT WT;RAM 1-90 = hRNMT WT;RAM 1-90 (Homo sapiens;Homo sapiens?, UniProt O43148;Q9BTL3 1-476;1-90, |); experiment: EMSA
hRNMT 1-185 [3] = molecular target: T3, hRNMT 1-185 (Homo sapiens, UniProt O43148 1-185); experiment: EMSA
T3 sequence (O43148 1-185): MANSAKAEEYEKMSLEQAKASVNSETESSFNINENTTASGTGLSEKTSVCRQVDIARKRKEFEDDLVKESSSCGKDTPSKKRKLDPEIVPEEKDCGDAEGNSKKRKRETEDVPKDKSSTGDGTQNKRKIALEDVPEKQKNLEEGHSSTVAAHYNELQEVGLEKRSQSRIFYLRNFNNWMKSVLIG

hRNMT WT [4] = molecular target: T1, hRNMT WT; experiment: pull-down
hRNMT 120-476 [5] = molecular target: T2, hRNMT 120-476; experiment: pull-down
hRNMT 1-185 [6] = molecular target: T3, hRNMT 1-185; experiment: pull-down

Measured: binding result

T2 sequence (O43148 120-476): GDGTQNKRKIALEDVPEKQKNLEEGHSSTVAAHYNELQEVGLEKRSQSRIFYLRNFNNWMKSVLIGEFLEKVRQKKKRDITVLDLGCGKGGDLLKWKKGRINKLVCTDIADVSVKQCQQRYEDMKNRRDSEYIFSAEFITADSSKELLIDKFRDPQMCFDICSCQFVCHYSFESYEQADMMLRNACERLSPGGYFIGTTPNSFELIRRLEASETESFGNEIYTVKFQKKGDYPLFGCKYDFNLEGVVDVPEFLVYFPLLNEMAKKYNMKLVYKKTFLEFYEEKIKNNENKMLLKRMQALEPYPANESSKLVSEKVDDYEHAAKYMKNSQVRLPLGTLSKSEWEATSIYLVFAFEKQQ
Sequence of hRNMT WT;RAM 1-90 (O43148 whole entry, chain 1 of 2): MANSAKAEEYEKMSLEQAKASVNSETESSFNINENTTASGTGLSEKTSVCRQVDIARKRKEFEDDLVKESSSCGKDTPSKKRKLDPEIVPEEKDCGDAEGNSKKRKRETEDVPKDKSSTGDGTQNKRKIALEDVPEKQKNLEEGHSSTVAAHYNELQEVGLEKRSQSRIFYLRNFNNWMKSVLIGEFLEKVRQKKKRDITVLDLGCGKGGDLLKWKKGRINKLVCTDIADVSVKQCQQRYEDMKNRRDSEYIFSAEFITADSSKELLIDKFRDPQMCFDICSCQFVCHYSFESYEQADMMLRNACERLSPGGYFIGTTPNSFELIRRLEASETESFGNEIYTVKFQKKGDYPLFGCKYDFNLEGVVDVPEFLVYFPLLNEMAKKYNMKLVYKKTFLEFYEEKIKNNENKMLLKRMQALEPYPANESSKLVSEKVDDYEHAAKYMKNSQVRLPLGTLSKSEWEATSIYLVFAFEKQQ
Sequence of hRNMT WT;RAM 1-90 (Q9BTL3 1-90, chain 2 of 2): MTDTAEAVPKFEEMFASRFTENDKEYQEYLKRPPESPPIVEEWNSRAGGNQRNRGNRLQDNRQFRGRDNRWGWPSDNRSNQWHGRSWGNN
T1 sequence (O43148 whole entry): as the sequence (O43148 whole entry, chain 1 of 2) above

B1: pGEM rG4 RNA (structured_RNA)
RNA: GGGCGAAUUGGGCCCGACGUCGCAUGUGUGGGAGGGGGCGGGUGUGGGUGCGAA
binds: hRNMT WT [1] | hRNMT 120-476 [2] | hRNMT WT;RAM 1-90 | hRNMT 1-185 [3]

B2: pGEM RNA (ssRNA)
RNA: GGGCGAAUUGGGCCCGACGUCGCAUGCUCCCGGCCGCCAUGGCGGCCGCGGGAA
binds: hRNMT 120-476 [2] | hRNMT WT;RAM 1-90

B3: NRAS rG4 (structured_RNA)
RNA: UGUGGGAGGGGCGGGUGUGGGUGC
binds: hRNMT WT [4] | hRNMT 120-476 [5] | hRNMT 1-185 [6]
